In PMC4598320, “Novel binders derived from an albumin-binding domain scaffold targeting human prostate secretory protein 94 (PSP94)” (Protein & Cell, 2015):
“And” between values parts separate entries of the source, which are not always exact repeats. Identical values can stand only once. Ends that are not written are not given here.

B1: PAB036 (HisTag-PAB-TolA-AviTag fusion protein) (designed binder)
chain: LAEAKVLANRELDKYGVSDWYKNGINPAHRVRWVKGRIDAILARLP
modifications: not fully specified (N-terminus, C-terminus)
notes: numbers count on: the 46-residue ABD scaffold; positions 20-46 of the ABD scaffold with the 11 randomized positions as selected in PAB036; 46-residue ABD variant linked to a 305-residue TolA spacer with a C-terminal AviTag; also called PAB036 variant; source: E. coli, purified, in vivo biotinylated; not shown: His tag, N-terminal, kept; TolA spacer (helical, 305 amino acids), C-terminal, kept; …
B2: PAB050 (HisTag-PAB-TolA-AviTag fusion protein) (designed binder)
chain: LAEAKVLANRELDKYGVSDLYKNHINTAWRVAAVKRAIDLILASLP
modifications: not fully specified (N-terminus, C-terminus)
notes: numbers count on: the 46-residue ABD scaffold; positions 20-46 of the ABD scaffold with the 11 randomized positions as selected in PAB050; 46-residue ABD variant linked to a 305-residue TolA spacer with a C-terminal AviTag; also called PAB50; PAB050 variant; source: E. coli, purified, in vivo biotinylated; not shown: His tag, N-terminal, kept; TolA spacer (helical, 305 amino acids), C-terminal, …
B3: recombinant HisTag-PSP94 (human prostate secretory protein 94) (natural protein)
chain: SCYFIPNEGVPGDSTRKCMDLKGNKHPINSEWQTDNCETCTCYETEISCCTLVSTPVGYDKDNCQRIFKKEDCKYIVVEKKDPKKTCSVSEWII
modifications: fluorescent label (in the microscale thermophoresis only)
B4: PAB046 (HisTag-PAB-TolA-AviTag fusion protein) (designed binder)
chain: LAEAKVLANRELDKYGVSDRYKNAINRAPAVWWVKRLIDAILAALP
modifications: not fully specified (N-terminus, C-terminus)
notes: numbers count on: the 46-residue ABD scaffold; positions 20-46 of the ABD scaffold with the 11 randomized positions as selected in PAB046; 46-residue ABD variant linked to a 305-residue TolA spacer with a C-terminal AviTag; also called PAB046 variant; source: E. coli, purified, in vivo biotinylated; not shown: His tag, N-terminal, kept; TolA spacer (helical, 305 amino acids), C-terminal, kept; …

How the values were obtained:
[1] = molecular target: T1, PSP94 of LNCaP prostate cancer cells (membrane-bound on the cell surface); intracellular in permeabilized … (human (endogenous in LNCaP), UniProt P08118 21-114); assay: flow cytometry on cells; competition: LNCaP cells with (80 µg/mL) or without rabbit polyclonal antibody sc-68920 for 15 min on ice, then PAB binders at 10 µg/mL for 30 min; streptavidin-PE; settings: one partner purified
T1 construct: the cells were not transfected; source: endogenous, LNCaP cells (on the cell surface; inside permeabilized cells)
T1 sequence (looked up): B3 chain

[2] = molecular target: T2, recombinant HisTag-PSP94 (human prostate secretory protein 94) (human, UniProt P08118 21-114, fluorescent label (in the microscale thermophoresis only)); assay: MST; fluorescently labelled HisTag-PSP94 in solution, PAB variants titrated; thermophoresis + T-jump data, NanoTemper software; settings: both partners purified
T2 construct: prostate secretory protein 94 (PSP94, β-microseminoprotein), human, product of the MSMB gene; The letter has no methods section; the construct may be told in the supplementary file; also called His-PSP94; β-microseminoprotein; not shown: His tag, N-terminal, kept
T2 sequence (looked up): B3 chain

both these PAB proteins = assay: flow cytometry on cells; competition: PAB variants mixed with increasing concentrations of recombinant HisTag-PSP94 and left to bind LNCaP cells for 30 min; streptavidin-PE; binding without PSP94 taken as 100%; pair recombinant PSP94 with PAB

Binder | percent inhibition of binding by polyclonal antibody sc-68920 (the pair that is blocked) [1] [%] | Kd [2] | percent inhibition of PAB binding to LNCaP cells at 20 µg/mL PSP94 (both these PAB proteins) [%]
B1 | ~15 | 40 nM and 72 nM | –
B2 | 30 | 10 nM and 12 nM and 21 nM | –
B3 | – | – | 5 to 10
B4 | 30 | 49 ± 10 nM | –
